Fold decrease of RNAPIII-bound Sen1 with RNase A treatment against no treatment data for one substance are collected here from paper PMC9278858.

The target in the experiment is Rpc160-HTP (largest subunit of RNAPIII, C-terminally His6–TEV–Protein A tagged) (S. cerevisiae) (UniProt P04051). Kind of experiment: affinity purification with mass spectrometry; Rpc160-HTP as bait; as a3 but lysate treated with RNase A (20 μg/ml, 20 min at 25°C); label-free quantitative MS.
UniProt P04051, sequence (P04051 whole entry): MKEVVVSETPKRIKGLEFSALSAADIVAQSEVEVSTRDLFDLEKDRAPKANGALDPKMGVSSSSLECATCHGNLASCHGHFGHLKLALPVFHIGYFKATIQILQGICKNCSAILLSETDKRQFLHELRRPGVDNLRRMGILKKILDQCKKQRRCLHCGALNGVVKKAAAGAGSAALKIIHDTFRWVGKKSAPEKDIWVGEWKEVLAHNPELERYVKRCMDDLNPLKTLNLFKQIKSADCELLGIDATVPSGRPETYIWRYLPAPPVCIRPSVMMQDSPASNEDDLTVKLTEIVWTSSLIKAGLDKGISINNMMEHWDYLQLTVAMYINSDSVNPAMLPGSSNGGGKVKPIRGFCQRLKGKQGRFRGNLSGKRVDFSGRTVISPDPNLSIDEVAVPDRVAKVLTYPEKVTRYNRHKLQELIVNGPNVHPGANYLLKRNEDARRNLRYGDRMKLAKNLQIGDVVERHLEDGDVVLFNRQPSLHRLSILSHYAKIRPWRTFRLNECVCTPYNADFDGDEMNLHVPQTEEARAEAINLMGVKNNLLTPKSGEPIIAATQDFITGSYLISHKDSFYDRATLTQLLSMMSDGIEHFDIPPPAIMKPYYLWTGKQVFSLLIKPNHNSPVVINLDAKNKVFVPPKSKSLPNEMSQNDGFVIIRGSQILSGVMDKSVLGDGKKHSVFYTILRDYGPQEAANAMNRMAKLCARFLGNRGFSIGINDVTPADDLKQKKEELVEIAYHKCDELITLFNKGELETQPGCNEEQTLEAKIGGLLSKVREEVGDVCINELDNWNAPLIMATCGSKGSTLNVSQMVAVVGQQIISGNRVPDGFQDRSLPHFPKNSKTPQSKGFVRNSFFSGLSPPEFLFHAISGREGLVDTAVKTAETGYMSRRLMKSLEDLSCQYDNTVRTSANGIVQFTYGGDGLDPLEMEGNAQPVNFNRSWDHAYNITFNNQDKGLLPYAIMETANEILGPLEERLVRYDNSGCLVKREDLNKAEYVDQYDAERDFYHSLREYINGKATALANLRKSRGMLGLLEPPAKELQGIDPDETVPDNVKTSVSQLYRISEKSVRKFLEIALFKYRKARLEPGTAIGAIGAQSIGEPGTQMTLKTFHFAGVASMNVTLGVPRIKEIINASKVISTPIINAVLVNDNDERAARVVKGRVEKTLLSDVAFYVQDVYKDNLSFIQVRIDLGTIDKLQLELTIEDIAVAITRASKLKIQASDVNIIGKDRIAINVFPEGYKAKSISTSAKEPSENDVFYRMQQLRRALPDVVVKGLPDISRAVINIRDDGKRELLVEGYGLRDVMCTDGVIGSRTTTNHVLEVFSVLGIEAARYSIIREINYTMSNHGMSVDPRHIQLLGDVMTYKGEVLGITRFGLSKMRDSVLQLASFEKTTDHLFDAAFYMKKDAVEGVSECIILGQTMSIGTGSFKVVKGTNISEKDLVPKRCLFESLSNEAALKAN

For the substance “Sen1 (untagged, in cells expressing Rpc160-HTP, SEN1 background) (from UniProt Q00416 1-2231) (natural protein)”, the fold decrease of RNAPIII-bound Sen1 with RNase A treatment against no treatment was determined as 2 fold.
